Experimental findings from patent US20230192860A1 (Bristol-Myers Squibb, published 2023) are described below.

What is called Kd is a measure of binding affinity in units of concentration. A word on the koff: it is the rate constant with which the complex falls apart. Lower therefore signals a long-lived complex. The kon is a measure of how fast the partners come together. Low values mean slower complex formation, high ones faster complex formation.

For test [1], the target named is T1, monovalent hVISTA-ECD (amino acids 32-193 of SEQ ID NO: 1 with a 7xHis tail) (human, UniProt Q9H7M9 33-193).
T1 construct: analyte of the SPR assays; also called huVISTA-His; human VISTA-ECD
T1 sequence (Q9H7M9 other isoform, or with tags, fused parts or gaps limits assumed): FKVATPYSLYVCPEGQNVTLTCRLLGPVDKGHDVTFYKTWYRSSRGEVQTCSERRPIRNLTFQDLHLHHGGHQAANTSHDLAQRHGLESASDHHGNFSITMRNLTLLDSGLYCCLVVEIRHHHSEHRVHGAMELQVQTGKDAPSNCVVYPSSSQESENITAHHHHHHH
The experiment in a line: SPR 37C, Ab on Protein A, hVISTA-ECD 100-0.78 nM, pH 6.9. How it is done: (§1) Human VISTA binding kinetics of P1-061029 (“ ‘029”), P1-068761 (“ ‘761”) and P1-068767 (“ ‘767”) (as IgG1.3 antibodies) were measured at pH values between pH 7.4 and pH 6.0, i.e., at pH 6.9 and pH 6.45 using a Biacore® T100 instrument (GE Healthcare). […] Antibodies were diluted to 25 nM in PBST pH 7.4, and were captured across active biosensor flow cells at 5 ul/min for 45 seconds. A concentration series of 100 - 0.78 nM monovalent hVISTA-ECD (SEQ ID NO: 325) was prepared pH 7.4, 6.9, 6.45 and 6.0 running buffers, and was injected over the captured antibodies at 40 ul/min to measure association and dissociation. Two 15 second injections of 10 mM glycine pH 1.5 were used to regenerate the Protein A capture surface between assay cycles. Rate constants ka (kₒₙ) and kd (koff) were derived from reference flow cell and 0 nM blank-subtracted sensorgrams, and were fit to a 1:1 binding model in Biacore® T200 Evaluation Software v.2.0. The affinity constant, KD was calculated as the ratio of rate constants koff/kₒₙ for each VISTA antibody. Ratios of koff and KD at each pH relative to pH 6.0 were calculated to evaluate how the VISTA koff and KD change as the buffer pH shifts to physiological, and are shown in Table 7. […] As the buffer pH shifts from acidic to physiological, VISTA koff and KD both weaken for ‘761 and ‘767. Physiological pH data for ‘761 and ‘767 for comparison is referenced from Table 7 and noted with an asterisk (*).

Test [2] has as its target T1, monovalent hVISTA-ECD (amino acids …). In words: SPR 37C, Ab on Protein A, hVISTA-ECD 100-0.78 nM, pH 6.0. How it is done:
For this assay, ‘029, ‘761 and ‘767were reformatted as hIgG1f isotype and were expressed as both standard hIgG1f and in hIgG1f afucosylated formats to compare against the hIgG1.3f Fc. An SPR kinetics assay was conducted to measure koff and KD binding affinity measurements for VISTA Abs at acidic and physiological pH using a Biacore® T100 instrument (GE Healthcare). […] Antibodies were diluted to 25 nM in PBST pH 7.4, and were captured across active biosensor flow cells at 5 ul/min for 45 seconds. A concentration series of 1600 - 0.78 nM (pH 7.4) and 100 - 0.78 nM (pH 6.0) monovalent hVISTA-ECD (SEQ ID NO: 325) was prepared running buffer, and was injected over the captured antibodies at 40 ul/min to measure association and dissociation. Two 15 second injections of 10 mM glycine pH 1.5 were used to regenerate the Protein A capture surface between assay cycles. Rate constants ka (kₒₙ) and kd (koff) were derived from reference flow cell and 0 nM blank-subtracted sensorgrams, and were fit to a 1:1 binding model in Biacore® T200 Evaluation Software v.2.0. The affinity constant, KD was calculated as the ratio of rate constants koff/kₒₙ for each VISTA antibody. Ratios of koff and KD at pH 7.4 / pH 6.0 were calculated to compare off-rate and affinity improvement at acidic pH relative to physiological pH.

Test [3] has the same target. In words: SPR 37C, Ab on Protein A, hVISTA-ECD 100-0.78 nM, pH 7.4. The protocol:
as §1

Test [4] shares this target. The experiment in a line: SPR 37C, Ab on Protein A, hVISTA-ECD 50-5 nM, pH 6.0, average. The method, boiled down:
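Biacore T100 at 37C: antibodies (IgG1.3 format, 25 nM in PBST pH 7.4) captured on Protein A, then 50 - 5 nM monovalent hVISTA-ECD injected in pH 7.4 or 6.0 running buffer. Reference- and blank-subtracted sensorgrams fit to 1:1 model; KD = koff/kon.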

Test [5] has the same target. In words: SPR 37C, pH 6.9 over pH 6.0. How it is done:
as §1

B1: P1-061029.IgG1.3 (antibody)
heavy: EVQLVESGGGLVQPGKSLRLSCAASGFTLDDYAMHWVRQAPGKGLEWVSGINWNSANIGYADSVKGRFTISRDNAKNSLYLQMNSLRTEDTALYYCAKVPGYSGGWIDAFDVWGQGTMVTVSSASTKGPSVFPLAPSSKSTSGGTAALGCLVKDYFPEPVTVSWNSGALTSGVHTFPAVLQSSGLYSLSSVVTVPSSSLGTQTYICNVNHKPSNTKVDKRVEPKSCDKTHTCPPCPAPEAEGAPSVFLFPPKPKDTLMISRTPEVTCVVVDVSHEDPEVKFNWYVDGVEVHNAKTKPREEQYNSTYRVVSVLTVLHQDWLNGKEYKCKVSNKALPAPIEKTISKAKGQPREPQVYTLPPSREEMTKNQVSLTCLVKGFYPSDIAVEWESNGQPENNYKTTPPVLDSDGSFFLYSKLTVDKSRWQQGNVFSCSVMHEALHNHYTQKSLSLSPG
light: not shown
notes: IgG1.3; also called P1-061029 (parent); P1-061029-18
On to B1, for which the equilibrium dissociation constant (Kd) in test [1] stood at 14 nM; in test [2] it was 7.2 nM; in test [3], 26 nM; in test [4], 3.6 nM. The koff in test [1] was 0.0057 s⁻¹; in test [2] it was 0.0079 s⁻¹; in test [3] it was 0.0064 s⁻¹; in test [4], 0.0058 s⁻¹. In addition, the on-rate (kon) came to 410000 M⁻¹ s⁻¹ in test [1], 1.1e+06 M⁻¹ s⁻¹ in test [2], 250000 M⁻¹ s⁻¹ in test [3] and 1.6e+06 M⁻¹ s⁻¹ in test [4]. In addition, the “KD ratio to pH 6.0” value in test [5] was 7.1. In test [5], the “koff ratio to pH 6.0” value was 1.

B2: P1-068761.IgG1.3 (antibody)
heavy: EVQLVESGGGLVQPGKSLRLSCAASGFTLEDEAMHWVRQAPGKGLEWVSGINWNSEEIGYADSVKGRFTISRDNAKNSLYLQMNSLRTEDTALYYCAKVPGYSHGWIDAEDVWGQGTMVTVSSASTKGPSVFPLAPSSKSTSGGTAALGCLVKDYFPEPVTVSWNSGALTSGVHTFPAVLQSSGLYSLSSVVTVPSSSLGTQTYICNVNHKPSNTKVDKRVEPKSCDKTHTCPPCPAPEAEGAPSVFLFPPKPKDTLMISRTPEVTCVVVDVSHEDPEVKFNWYVDGVEVHNAKTKPREEQYNSTYRVVSVLTVLHQDWLNGKEYKCKVSNKALPAPIEKTISKAKGQPREPQVYTLPPSREEMTKNQVSLTCLVKGFYPSDIAVEWESNGQPENNYKTTPPVLDSDGSFFLYSKLTVDKSRWQQGNVFSCSVMHEALHNHYTQKSLSLSPG
light: not shown
notes: IgG1.3; also called P1-068761-20; P1-068761 hIgG1.3f
As to B2, in test [1], the Kd was 190 nM, the koff came out at 0.0089 s⁻¹ and the kon is 48000 M⁻¹ s⁻¹. In test [2], this molecule had a Kd of 4.3 nM, an off-rate constant (koff) of 0.0016 s⁻¹ and a kon of 370000 M⁻¹ s⁻¹. Besides, in test [4], binding was characterised by a dissociation constant (Kd) of 3.8 nM, the off-rate (koff) was 0.0014 s⁻¹ and the kon amounted to 380000 M⁻¹ s⁻¹. In addition, in test [5], the “KD ratio to pH 6.0” value came out at 170 and the “koff ratio to pH 6.0” value was 13.4.
